Results published in paper PMC9226498, “Structural basis for interaction between CLAMP and MSL2 proteins involved in the specific recruitment of the dosage compensation complex in Drosophila” (Nucleic Acids Research, 2022).

Target: T1, CLAMP^40–153 (Drosophila melanogaster, UniProt Q9V9N4 40-153)
T1 construct: Tags and their cleavage are told only in the Supplementary Information; source: E. coli BL21 (DE3), purified (IMAC, anion-exchange chromatography)
T1 sequence (looked up): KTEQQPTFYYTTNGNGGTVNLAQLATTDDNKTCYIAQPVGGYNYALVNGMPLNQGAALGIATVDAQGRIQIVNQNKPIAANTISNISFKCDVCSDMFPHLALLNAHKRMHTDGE
Assay: NMR titration; stable isotope-labeled MSL2 618–655 titrated with unlabeled CLAMP 40–153 (or CLAMP 41–153 L139A/K146E); chemical shift perturbation, fast exchange; 25°C
Settings: both partners purified

Kd: 200 ± 100 µM
B1: MSL2^618–655 (domain or fragment, Drosophila melanogaster, UniProt P50534 618-655, looked up)
chain: ISLVPLNNLQQSQHPLVLVQNEKGEYQGFNIFQGSKPL
notes: Unlabelled or 13C,15N-labelled for NMR; Tags and their cleavage are told only in the Supplementary Information; also called MSL2 peptide; source: E. coli BL21 (DE3), purified (IMAC, anion-exchange chromatography)
